Target: antigen PIPA (human)
Assay: cell-based or functional assay

B1: monoclonal antibody PIP (antibody, V domains shown)
V domain 1: DVQLQESGPDLVKPSQSVSLTCTVTGYSITSGYGWHWIRQFPGNKLEWMGCIHYSGSTNYNPSLKSRISVTRDTSKNQFFLQLNSVTTEDTATYYCARREYGNYAMDYWGQGTSVTVSS
V domain 2: DVQLQESGPDLVKPSQSVSLTCTVTGYSITSGYGWHWIRQFPGNKLEWMGCIHYSGSTNYNPSLKSRISVTRDTSKNQFFLQLNSVTTEDTATYYCARREYGNYAMDYWGQGTSVTVSS
Binder B1 has a decrease in cell proliferation of OV90 cells (MTT) with PIP at 10 ug/ml and MAb-ZAP saporin-linked secondary antibody of 50 percent.
